Measured values: patent US20040228866A1, “Suppressor genes” (Ludwig Institute for Cancer Research, priority 2000, published 2004)

Key:
[1] = target: T1, p73α (Homo sapiens, UniProt O15350); assay: Transient luciferase reporter assay of p73α transactivation function; assay type: cell-based
T1 construct: expressed in transfected cells; host or cells: H1299 and Saos-2; part of the results from in vitro translation
T1 sequence (O15350 1-636): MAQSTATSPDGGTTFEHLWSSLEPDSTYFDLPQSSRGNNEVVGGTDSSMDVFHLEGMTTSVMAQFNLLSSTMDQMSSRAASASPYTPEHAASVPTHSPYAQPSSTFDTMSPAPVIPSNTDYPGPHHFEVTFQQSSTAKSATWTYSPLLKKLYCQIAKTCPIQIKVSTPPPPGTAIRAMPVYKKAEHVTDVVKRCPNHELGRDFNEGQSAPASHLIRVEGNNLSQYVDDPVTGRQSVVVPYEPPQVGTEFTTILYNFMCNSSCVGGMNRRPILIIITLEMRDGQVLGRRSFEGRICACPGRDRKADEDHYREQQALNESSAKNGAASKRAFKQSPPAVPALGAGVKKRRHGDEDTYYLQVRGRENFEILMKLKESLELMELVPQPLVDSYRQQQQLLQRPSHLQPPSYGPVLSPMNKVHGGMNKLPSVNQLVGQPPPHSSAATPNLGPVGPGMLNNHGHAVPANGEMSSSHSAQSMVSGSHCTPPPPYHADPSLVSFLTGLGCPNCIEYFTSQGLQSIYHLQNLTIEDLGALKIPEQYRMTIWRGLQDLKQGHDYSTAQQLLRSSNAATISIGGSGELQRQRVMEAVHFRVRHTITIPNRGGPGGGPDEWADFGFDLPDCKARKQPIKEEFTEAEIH
Method: (§1) To determine the amount of protein expression, Saos-2 cells (5×10^5) were plated 24 hours prior to transfection in 6 cm dishes. […] To determine the amount of gene activation, after transfection, the cells were lysed in Reporter Lysis Buffer 16-24 hours post-wash and assayed using the Luciferase Assay kit (Promega, Wis.). The fold activation of a particular reporter was determined by the activity of the transfected plasmid above the activity of vector alone.
(§2) The expression level of transfected proteins was detected using 40 μg of the respective lysates using the antibodies V5, DX.5410, DO1, 4A4 and p73. […] Results were derived from at least three independent experiments.

[2] = target: T2, p53 (Homo sapiens, UniProt P04637); assay: Transient luciferase reporter assay of p53 transactivation function in Saos-2 cells; assay type: cell-based
T2 construct: expressed in transfected cells
Method: (§3) The amount of luciferase expression was determined as previously described in Samuels-Lev et al. (Mol. Cell 8:781-94, 2001, herein incorporated by reference).
(§4) The amount of transactivation function was determined as described in Example 4.
as §1, §2

[3] = target: T3, p53 (Homo sapiens, UniProt P04637, R181C); assay: as above; assay type: cell-based; settings: Bax-luc, FIG. 6B
T3 construct: expressed in transfected cells
Method: as §3, §4, §1, §2

[4] = tested on: Saos-2 cells; assay: Apoptosis by flow cytometry (CD20-gated, sub-G1 DNA content) in transfected Saos-2 cells; assay type: cell-based
Method: Apoptosis was identified by the expression of the co-transfected cell surface marker CD20, as described in Samuels-Lev et al. (Mol. Cell 8:781-94, 2001, herein incorporated by reference).
The number of apoptotic cells was determined using the methods described in Example 6.
Cells (10^6) were plated 24-48 hours prior to transfection in 10 cm plates. Cells were grown in DMEM supplemented with 10% FCS and transfected with 2 μg of a plasmid expressing CD20 as a transfection marker. Increasing amounts of ASPP1 and ASPP2 were transfected (7.5 μg, 15 μg and 25 μg). 36 hours after the transfection, both attached and floating cells were harvested and analysed using flow cytometry as follows. The transfected cells were gated based on the expression of CD20. The percentage of apoptotic cells was measured by the accumulation of cells with a sub-G1 DNA content derived from at least three individual experiments.
The transfected cells were analyzed by flow cytometry as described in Example 6.

[5] = target: T4, p63γ (Homo sapiens, UniProt Q9H3D4); assay: Transient luciferase reporter assay of p63γ transactivation function; assay type: cell-based; settings: FIG. 14C
T4 construct: expressed in transfected cells; host or cells: Saos-2
T4 sequence (Q9H3D4 1-487 isoform Q9H3D4-5): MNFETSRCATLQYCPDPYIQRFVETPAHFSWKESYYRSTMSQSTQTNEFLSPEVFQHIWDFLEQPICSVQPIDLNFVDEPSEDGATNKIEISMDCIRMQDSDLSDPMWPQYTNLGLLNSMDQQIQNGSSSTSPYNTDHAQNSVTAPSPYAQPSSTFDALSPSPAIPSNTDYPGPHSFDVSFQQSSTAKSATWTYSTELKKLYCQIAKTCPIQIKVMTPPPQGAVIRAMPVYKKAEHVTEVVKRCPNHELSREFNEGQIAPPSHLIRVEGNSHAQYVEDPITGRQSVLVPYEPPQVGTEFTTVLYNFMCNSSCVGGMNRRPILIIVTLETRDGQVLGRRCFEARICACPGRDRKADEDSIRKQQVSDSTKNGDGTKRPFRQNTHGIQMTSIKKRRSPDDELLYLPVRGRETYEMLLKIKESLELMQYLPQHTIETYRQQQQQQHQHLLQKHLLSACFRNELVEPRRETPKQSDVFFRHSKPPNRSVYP
Method: as §1, §2

[6] = tested on: U2OS and MCF7 cells; assay: Apoptosis by FACS in U2OS and MCF7 cells expressing wild-type p53, with or without cisplatin; assay type: cell-based, human; settings: no cisplatin
Method: The transfected cells were gated, and the apoptotic cells identified by FACS as described in Example 6.
Before exposure to cisplatin (5 and 3 μg/ml respectively), U2OS and MCF7 cells were transfected with plasmids encoding HPV16 E6, iASPP, or 53BP2. Thirty hours later, cells were harvested and analysed as above.
Fragments from the 5′ ends of ASPP1, ASPP2 and iASPP cDNA were cloned into a mammalian expression vector in an antisense orientation and their ability to inhibit the protein synthesis determined in vitro. The antisense nucleic acid molecules were amplified by PCR on the respective plasmid clones using primers spanning the following nucleotide regions (relative to the initial ATG): −74 to 923; −253 to 839 and −37 to 536 for ASPP1, ASPP2 and iASPP respectively. The amplified segments were purified with the QIAquick PCR purification kit (QIAGEN) and ligated in the pcDNA3.1/V5-His TOPO vector (Invitrogen) according to the manufacturer's instructions.
U2OS and MCF-7 cells were transfected with the various expression plasmids prior to the treatment with cisplatin and analyzed using FACS as described above.
To determine the anti-apoptotic role of iASPP, both U2OS and MCF-7 cells were transfected with antisense iASPP and cells analyzed as described above. […] A small increase in apoptotic cells was consistently detected (FIG. 7D).

B1: ASPP2: full length 1128 amino acid protein, SEQ ID NO: 4 (protein, listed as Homo sapiens)
chain: MMPMFLTVYLSNNEQHFTEVPVTPETICRDVVDLCKEPGESDCHLAEVWCGSERPVADNERMFDVLQRFGSQRNEVRFFLRHERPPGRDIVSGPRSQDPSLKRNGVKVPGEYRRKENGVNSPRMDLTLAELQEMASRQQQQIEAQQQLLATKEQRLKFLKQQDQRQQQQVAEQEKLKRLKEIAENQEAKLKKVRALKGHVEQKRLSNGKLVEEIEQMNNLFQQKQRELVLAVSKVEELTRQLEMLKNGRIDSHHDNQSAVAELDRLYKELQLRNKLNQEQNAKLQQQRECLNKRNSEVAVMDKRVNELRDRLWKKKAALQQKENLPVSSDGNLPQQAASAPSRVAAVGPYIQSSTMPRMPSRPELLVKPALPDGSLVIQASEGPMKIQTLPNMRSGAASQTKGSKIHPVGPDWSPSNADLFPSQGSASVPQSTGNALDQVDDGEVPLREKEKKVRPFSMFDAVDQSNAPPSFGTLRKNQSSEDILRDAQVANKNVAKVPPPVPTKPKQINLPYFGQTNQPPSDIKPDGSSQQLSTVVPSMGTKPKPAGQQPRVLLSPSIPSVGQDQTLSPGSKQESPPAAAVRPFTPQPSKDTLLPPFRKPQTVAASSIYSMYTQQQAPGKNFQQAVQSALTKTHTRGPHFSSVYGKPVIAAAQNQQQHPENIYSNSQGKPGSPEPETEPVSSVQENHENERIPRPLSPTKLLPFLSNPYRNQSDADLEALRKKLSNAPRPLKKRSSITEPEGPNGPNIQKLLYQRTTIAAMETISVPSYPSKSASVTASSESPVEIQNPYLHVEPEKEVVSLVPESLSPEDVGNASTENSDMPAPSPGLDYEPEGVPDNSPNLQNNPEEPNPEAPHVLDVYLEEYPPYPPPPYPSGEPEGPGEDSVSMRPPEITGQVSLPPGKRTNLRKTGSERIAHGMRVKFNPLALLLDSSLEGEFDLVQRIIYEVDDPSLPNDEGITALHNAVCAGHTEIVKFLVQFGVNVNAADSDGWTPLHCAASCNNVQVCKFLVESGAAVFAMTYSDMQTAADKCEEMEEGYTQCSQFLYGVQEKMGIMNKGVIYALWDYEPQNDDELPMKEGDCMTIIHREDEDEIEWWWARLNDKEGYVPRNLLGLYPRIKPRQRSLA
stimulation of the transactivation function of p73α on the Bax promoter ([1]; Example 16, FIGS. 14A and 14B): 6 fold
transactivation function of p73α on the mdm2 promoter ([1]; FIG. 14C): failed to stimulate
transactivation function of p53 on the mdm2 promoter ([2]; FIG. 8C, Ikb even in the presence of ASPP2): very little effect
stimulation of the promoter activity of mdm2 and cyclin G ([2]; co-expression with p53): very modest stimulation
stimulation of the transactivation function of p53 on the Bax promoter ([2]; co-expression with p53, FIG. 8B): about 8 fold
promoter activity of PIG-3 ([2]; transient transfection reporter assay): specifically stimulated
stimulation of the transactivation function of p53 ([2]; versions of ASPP2 co-expressed with p53, FIG. 3): about 7 fold
transactivation function of mutant p53 181C on the Bax gene promoter [3]: unable to stimulate
percentage of apoptotic cells, co-expressed with p53 ([4]; Example 11, p53 alone […]%): 30%
effect on apoptotic function of p53 mutants 181L and 181C ([4]; FIG. 6A): failed to enhance the apoptotic function of either p53 mutant
increase in percentage of cells that die of apoptosis with E2F1 ([4]; co-expression with E2F1, FIG. 4B): only an additive increase
apoptotic function of p63γ and p73α ([4]; co-expression, FIG. 15): enhanced the apoptotic function of p63γ and p73α
apoptosis when expressed alone ([4]; no p53 co-expressed): lower level of apoptosis
effect on apoptosis induced by p53H175-L ([4]; transcriptionally inactive, mitochondria-targeted mutant p53, FIG. 9A): failed to enhance the apoptotic function of p53H175-L
transactivation function of p63γ on the mdm2 promoter [5]: failed to stimulate
apoptosis on expression in cells with endogenous wild-type p53 [6]: induced apoptosis
